Source: IntAct's records for PubMed 29611543

Biological target: T1, trem2_human TREM2 (UniProt Q9NZC2)
T1 sequence: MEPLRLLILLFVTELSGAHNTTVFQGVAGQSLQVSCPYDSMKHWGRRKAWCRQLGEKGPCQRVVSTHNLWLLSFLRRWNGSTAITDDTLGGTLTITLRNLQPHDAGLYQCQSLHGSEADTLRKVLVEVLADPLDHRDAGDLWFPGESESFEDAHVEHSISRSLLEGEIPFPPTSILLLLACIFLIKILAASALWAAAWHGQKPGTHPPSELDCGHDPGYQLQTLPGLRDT

For “Presenilin-1 (Homo sapiens) (from UniProt P49768) D385A”, the “effect of a mutation on the interaction” value was “with no effect”.
